Consider six molecules from patent US20190004036.

Where two headings read alike, the source gives them in different places.

Data set [1] concerns T1, 5FAMcollagenPPT protease substrate.
T1 sequence: AGGPLGPPGPGGK

Data set [2] deals with T2, 5FAMcollagenPPT protease substrate.
T2 chain: AGGPLGPPGPGGK

On to trypsin, for which the “cleavage of substrate (FRET assay, Example 3, 0.3125-10 µg/mL enzyme, 50 µM substrate)” value in data set [1] was “the mammalian proteases trypsin, chymotrypsin, and elastase do not cleave the protease substrate”.
On to collagenase class I, for which, in data set [1], the Km (FRET cleavage assay, Example 3) was 28.2 µM; the Km, with 4.14 mM calcium (FRET cleavage assay) came to 32.9 µM; the Km, without calcium (FRET cleavage assay) came out at 38.1 µM; the Vmax (FRET cleavage assay, Example 3) was found to be 909 RFU/min/µg. Moreover, in data set [1], the Vmax, with 4.14 mM calcium (FRET cleavage assay) was 1010 RFU/min/µg and the Vmax, without calcium (FRET cleavage assay) amounted to 1700 RFU/min/µg.
In the case of Neutral Protease, in data set [1], the Km, with 4.14 mM calcium (FRET cleavage assay) amounted to 45.1 µM; the Km, without calcium (FRET cleavage assay) came to 74.1 µM; the Vmax, with 4.14 mM calcium (FRET cleavage assay) came out at 29.3 RFU/min/µg; the Vmax, without calcium (FRET cleavage assay) turned out to be 20 RFU/min/µg.
Regarding chymotrypsin, in data set [1], the “cleavage of substrate (FRET assay, Example 3, 0.3125-10 µg/mL enzyme, 50 µM substrate)” value is “the mammalian proteases trypsin, chymotrypsin, and elastase do not cleave the protease substrate”.

B1: collagenase class II (protein)
chain: VQNESKRYTVSYLKTLNYYDLVDLLVKTEIENLPDLFQYSSDAKEFYGNKTRMSFIMDEIGRRAPQYTEIDHKGIPTLVEVVRAGFYLGFHNKELNEINKRSFKERVIPSILAIQKNPNFKLGTEVQDKIVSATGLLAGNETAPPEVVNNFTPILQDCIKNIDRYALDDLKSKALFNVLAAPTYDITEYLRATKEKPENTPWYGKIDGFINELKKLALYGKINDNNSWIIDNGIYHIAPLGKLHSNNKIGIETLTEVMKVYPYLSMQHLQSADQIKRHYDSKDAEGNKIPLDKFKKEGKEKYCPKTYTFDDGKVIIKAGARVEEEKVKRLYWASKEVNSQFFRVYGIDKPLEEGNPDDILTMVIYNSPEEYKLNSVLYGYDTNNGGMYIEPEGTFFTYEREAQESTYTLEELFRHEYTHYLQGRYAVPGQWGRTKLYDNDRLTWYEEGGAELFAGSTRTSGILPRKSIVSNIHNTTRNNRYKLSDTVHSKYGASFEFYNYACMFMDYMYNKDMGILNKLNDLAKNNDVDGYDNYIRDLSSNYALNDKYQDHMQERIDNYENLTVPFVADDYLVRHAYKNPNEIYSEISEVAKLKDAKSEVKKSQYFSTFTLRGSYTGGASKGKLEDQKAMNKFIDDSLKKLDTYSWSGYKTLTAYFTNYKVDSSNRVTYDVVFHGYLPNEGDSKNSLPYGKINGTYKGTEKEKIKFSSEGSFDPDGKIVSYEWDFGDGNKSNEENPEHSYDKVGTYTVKLKVTDDKGESSVSTTTAEIKDLSENKLPVIYMHVPKSGALNQKVVFYGKGTYDPDGSIAGYQWDFGDGSDFSSEQNPSHVYTKKGEYTVTLRVMDSSGQMSEKTMKIKITDPVYPIGTEKEPNNSKETASGPIVPGIPVSGTIENTSDQDYFYFDVITPGEVKIDINKLGYGGATWVVYDENNNAVSYATDDGQNLSGKFKADKPGRYYIHLYMFNGSYMPYRINIEGSVGR
Regarding B1, in data set [2], the Km (FRET cleavage assay, Example 3) turned out to be 24.5 µM; the Km, without calcium (FRET cleavage assay) was 24.1 µM; the Vmax (FRET cleavage assay, Example 3) was 5000 RFU/min/µg; the Vmax, without calcium (FRET cleavage assay) was 3240 RFU/min/µg.

B2: thermolysin (protein)
chain: ITGTSTVGVGRGVLGDQKNINTTYSTYYYLQDNTRGNGIFTYDAKYRTTLPGSLWADADNQFFASYDAPAVDAHYYAGVTYDYYKNVHNRLSYDGNNAAIRSSVHYSQGYNNAFWNGSQMVYGDGDGQTFIPLSGGIDVVAHELTHAVTDYTAGLIYQNESGAINEAISDIFGTLVEFYANKNPDWEIGEDVYTPGISGDSLRSMSDPAKYGDPDHYSKRYTGTQDNGGVHINSGIINKAAYLISQGGTHYGVSVVGIGRDKLGKIFYRALTQYLTPTSNFSQLRAAAVQSATDLYGSTSQEVASVKQAFDAVGVK
For B2, in data set [2], the Km (FRET cleavage assay, Example 3) was determined as 34.6 µM; the Km, with 4.14 mM calcium (FRET cleavage assay) came out at 24.8 µM; the Km, without calcium (FRET cleavage assay) was 30.4 µM; the Vmax (FRET cleavage assay, Example 3) was found to be 24.6 RFU/min/µg. Moreover, in data set [2], the Vmax, with 4.14 mM calcium (FRET cleavage assay) was 25.5 RFU/min/µg and the Vmax, without calcium (FRET cleavage assay) worked out at 23.7 RFU/min/µg.
